Bridge positions count the residues as written; N and C are the ends. Square brackets hold non-standard residues; d marks the D form. Ends that are not written are not given here. * marks the point of attachment. Acetyl(2-(4-imidazolyl)) = O=C(Cc1c[nH]cn1)*; Aib = CC(C)(N)C(=O)O
T1: human GIP receptor (human, UniProt P48546 22-466)
T1 sequence (looked up): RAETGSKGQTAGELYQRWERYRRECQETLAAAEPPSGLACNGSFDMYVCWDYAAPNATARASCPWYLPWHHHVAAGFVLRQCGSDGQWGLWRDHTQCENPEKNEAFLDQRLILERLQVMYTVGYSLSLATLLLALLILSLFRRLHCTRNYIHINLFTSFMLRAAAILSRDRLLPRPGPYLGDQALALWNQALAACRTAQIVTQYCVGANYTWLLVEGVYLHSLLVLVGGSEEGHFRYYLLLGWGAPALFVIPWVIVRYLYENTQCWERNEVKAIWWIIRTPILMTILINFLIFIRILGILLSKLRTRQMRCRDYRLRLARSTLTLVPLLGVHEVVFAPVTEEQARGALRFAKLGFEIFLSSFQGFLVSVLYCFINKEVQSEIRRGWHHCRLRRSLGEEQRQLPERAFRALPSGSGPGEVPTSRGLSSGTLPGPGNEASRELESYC


Assays:
Assay in all cases: cell-based or functional assay
human GLP-1 receptor = human GLP-1 receptor (human, UniProt P43220 24-463)
human GCG receptor = human GCG receptor (human, UniProt P47871 26-477)
Sequence of human GCG receptor (P47871 26-477): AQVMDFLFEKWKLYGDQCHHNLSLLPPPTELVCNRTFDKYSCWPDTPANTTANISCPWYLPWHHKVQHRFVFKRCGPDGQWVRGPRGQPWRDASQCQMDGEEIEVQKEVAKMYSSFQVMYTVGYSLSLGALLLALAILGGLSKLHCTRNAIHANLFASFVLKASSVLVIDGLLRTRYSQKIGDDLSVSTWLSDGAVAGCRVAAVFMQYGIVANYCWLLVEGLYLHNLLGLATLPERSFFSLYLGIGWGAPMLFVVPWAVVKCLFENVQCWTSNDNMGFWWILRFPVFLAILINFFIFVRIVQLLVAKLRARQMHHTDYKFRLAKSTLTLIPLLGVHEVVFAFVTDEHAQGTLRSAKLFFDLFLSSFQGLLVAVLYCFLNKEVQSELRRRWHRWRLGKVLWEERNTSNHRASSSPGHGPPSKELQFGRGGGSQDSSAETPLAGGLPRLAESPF

human GIP receptor = target: T1, human GIP receptor

Binder	In vitro activity compared with native peptide (%) vs GLP-1 (cAMP EC50) (human GLP-1 receptor)	In vitro activity compared with native peptide (%) vs Glucagon (cAMP EC50) (human GCG receptor)	In vitro activity compared with native peptide (%) vs GIP (cAMP EC50) (human GIP receptor)
H[Aib]QGTFTSDVSSYLDGQAAKEFIAWLVKGC [triple agonist of SEQ ID NO: 1]	3.2%	< 0.1%	< 0.1%
H[Aib]QGTFTSDVSSYLLGQQQKEFIAWLVKGC [triple agonist of SEQ ID NO: 4]	8.5%	< 0.1%	< 0.1%
H[Aib]QGTFTSDYSKYLDEKRQKEFVNWLLAQKC (bridge 16-20) [triple agonist of SEQ ID NO: 34]	19.1%	0.92%	0.6%
H[Aib]QGTFTSDYSIAMDEIHQKDFVNWLLNTKC (bridge 16-20) [triple agonist of SEQ ID NO: 35]	7.5%	< 0.1%	1.3%
H[Aib]QGTFTSDYSKYLCEKRQKEFVQWLLNGGPSSGAPPPSG (bridge 16-20) [triple agonist of SEQ ID NO: 36]	37.4%	0.39%	0.2%
H[Aib]QGTFTSDYSKYLDECRQKEFVQWLLNGGPSSGAPPPSG (bridge 16-20) [triple agonist of SEQ ID NO: 37]	236%	6.21%	2.2%
[Acetyl(2-(4-imidazolyl))][Aib]QGTFTSDKSSYLDERAAQDFVQWLLDGGPSSGAPPPSS [triple agonist of SEQ ID NO: 38]	2.3%		
H[Aib]QGTFTSDYSKYLDGQHAQCFVAWLLAGGGPSSGAPPPS [triple agonist of SEQ ID NO: 39]	13.9%	0.53%	< 0.1%
H[Aib]QGTFTSDKSKYLDERACQDFVQWLLDGGPSSGAPPPS [triple agonist of SEQ ID NO: 40]	75.2%	< 0.1%	< 0.1%
H[Aib]QGTFTSDKSKYLDECAAQDFVQWLLDGGPSSGAPPPS [triple agonist of SEQ ID NO: 41]	34.3%	< 0.1%	< 0.1%
Y[Aib]QGTFTSDYSKYLDEKRAKEFVQWLLDHHPSSGQPPPSC (not fully specified (bridges)) [triple agonist of SEQ ID NO: 42]	33.9%	206%	7.8%
Y[Aib]QGTFTSDYSKYLDEKRAKEFVQWLLDHHCSSGQPPPS (not fully specified (bridges)) [triple agonist of SEQ ID NO: 43]	12.6%	88.4%	3.7%
HGQGTFTSDCSKQLDGQAAQEFVAWLLAGGPSSGAPPPS [triple agonist of SEQ ID NO: 44]	1.3%	< 0.1%	< 0.1%
H[Aib]QGTFTSDVSSYLLGQQQKEFIAWLVKGGGPSSGAPPPSC [triple agonist of SEQ ID NO: 5]	42.1%	< 0.1%	< 0.1%
HGQGTFTSDCSKYMDGQAAQDFVAWLLAGGPSSGAPPPS [triple agonist of SEQ ID NO: 45]	6.6%	< 0.1%	< 0.1%
HGQGTFTSDCSKYLDEQHAQEFVAWLLAGGPSSGAPPPS [triple agonist of SEQ ID NO: 46]	1.4%	< 0.1%	< 0.1%
HGQGTFTSDCSKYLDGQRAQEFVAWLLAGGPSSGAPPPS [triple agonist of SEQ ID NO: 47]	2.4%	< 0.1%	< 0.1%
HGQGTFTSDCSKYLDGQRAQDFVNWLLAGGPSSGAPPPS [triple agonist of SEQ ID NO: 48]	1.5%	< 0.1%	< 0.1%
[Acetyl(2-(4-imidazolyl))][Aib]QGTFTSDYSICMDEIHQKDFVNWLLNTK (bridge 16-20) [triple agonist of SEQ ID NO: 49]	29.8%	< 0.1%	3.3%
H[Aib]QGTFTSDYSKYLDEKRAKEFVQWLLDHHPSSGQPPPSC (bridge 16-20) [triple agonist of SEQ ID NO: 50]	67.4%	50.5%	2.7%
H[Aib]QGTFTSDYSKYLDEKRQKEFVQWLLNTC (bridge 16-20) [triple agonist of SEQ ID NO: 51]	14.4%	2%	0.1%
H[Aib]QGTFTSDYSKYLDEKRQKEFVQWLLDTC (bridge 16-20) [triple agonist of SEQ ID NO: 52]	44.1%	7.5%	0.3%
H[Aib]EGTFTSDYSIAMDEIHQKDFVNWLLAQC (bridge 16-20) [triple agonist of SEQ ID NO: 53]	161%	8.4%	1.3%
H[Aib]EGTFTSDYSIAMDEIHQKDFVDWLLAEC (bridge 16-20) [triple agonist of SEQ ID NO: 54]	30.6%	1.4%	0.1%
H[Aib]QGTFTSDVSSYLDGQAAKEFVAWLLKGC [triple agonist of SEQ ID NO: 6]	17%	< 0.1%	< 0.1%
H[Aib]QGTFTSDYSIAMDEIHQKDFVNWLLAQC (bridge 16-20) [triple agonist of SEQ ID NO: 55]	27.1%	0.7%	2.4%
H[Aib]QGTFTSDYSKYLDEKRQKEFVNWLLAQC (bridge (positions not given here); also: ring formation between two underlined residues) [triple agonist of SEQ ID NO: 56]	57.9%	4.9%	0.8%
H[Aib]QGTFTSDYSIAMDEIHQKDFVNWLLNTC (bridge 16-20) [triple agonist of SEQ ID NO: 57]	11.7%	< 0.1%	0.3%
H[Aib]QGTFTSDYSKYLDEKRQKEFVQWLLNTKC (bridge 16-20) [triple agonist of SEQ ID NO: 58]	39.1%	2.6%	0.2%

Reference: patent publication US20240293512A1 (HANMI PHARM, published 2024)
